Residue numbers refer to the chain shown, from its start.
What was measured:
[1] = target: T1, AdpA C62S C62S (Streptomyces coelicolor) (UniProt Q9L062); experiment: EMSA; settings: EMSA: 20 mM Tris-HCl, 2 mM EDTA, 20 mM KCl, 0.5 mM DTT, pH 8.0, 30 C 20 min, 16.5-22 nM probe; FP: 10 mM Tris-HCl, 75 mM NaCl, pH 7.5, 37 C 15 min, 1 nM FAM …
T1 sequence: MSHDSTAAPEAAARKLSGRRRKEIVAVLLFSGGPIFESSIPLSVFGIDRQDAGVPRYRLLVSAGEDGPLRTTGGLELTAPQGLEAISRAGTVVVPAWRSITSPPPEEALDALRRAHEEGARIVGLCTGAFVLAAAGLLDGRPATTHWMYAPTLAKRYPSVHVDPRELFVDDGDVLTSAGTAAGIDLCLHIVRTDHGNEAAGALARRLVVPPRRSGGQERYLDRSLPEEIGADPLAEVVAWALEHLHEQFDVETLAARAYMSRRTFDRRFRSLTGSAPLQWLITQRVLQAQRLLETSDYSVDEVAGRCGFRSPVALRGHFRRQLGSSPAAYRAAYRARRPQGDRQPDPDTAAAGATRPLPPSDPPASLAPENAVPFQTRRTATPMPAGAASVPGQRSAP

[2] = target: T2, AdpA (Streptomyces coelicolor) (UniProt Q9L062); experiment: EMSA; settings: EMSA: 20 mM Tris-HCl, 2 mM EDTA, 20 mM KCl, 0.5 mM DTT, pH 8.0, 30 C 20 min, 16.5-22 nM probe; FP: 10 mM Tris-HCl, 75 mM NaCl, pH 7.5, 37 C 15 min, 1 nM FAM …
T2 sequence: T1 sequence with S62C

| Sequence | binding [1] | binding [2] |
| --- | --- | --- |
| GCACTCCAGTCGGTTACCCAGCCCATACCGGCGCCGTCCTCTCCCGAATCGAGGCTCCCCCACGGCGGCAGCGGCATATTCACCGCCGCCAGTTGAGGACGTTACGGAAGGTGGGCACAGCGCAACACCCCCTTCGGGCCCAATCTTGAATGGCCCGAACGGACTATGGGTAAGCGGCAGATCACCCGGGGGAGTGAGCTGGCGACATGCGCGACGATCCCGACATTCAGGTCATCTCTGTTGCGCCACAACGGACACCGATTGACACACGAGGCGGATTCGGA (double strand) [PwblA probe] | binds | binds |
| ACACATCCCGCATCGGTGATTACATGGACACGTCCCAATAAGTTGAATCTCATCTGCGCCCCCGTCGAGATTCTCCGTCTCCTGGGGGCGACAATAACAGGCCTACTCAACAGATTTCAATGTGCTTGCCGTCACAAGCGATCTCCTATTGATCAAAAATTAATCAGTGCAGCGAGCTGCACTGATTAATTTTTGCTGGATTTTACCGAGAGGCAGTGGTCGAGGCTTCCGAATCAATAGAATCTGGCATTCCTGATACGGCTGGGTCC (double strand) [PactII-4 probe] |  | binds |

— paper PMC9239190
